Reference: paper PMC12570964 (Nature Microbiology, 2025)

Target: T1, mouse IFIT3 (M. musculus Ifit3, co-expressed with Ifit2 in E. coli) (M. musculus, UniProt Q64345 8-389)
T1 construct: also called interferon-induced protein with tetratricopeptide repeats 3
T1 sequence: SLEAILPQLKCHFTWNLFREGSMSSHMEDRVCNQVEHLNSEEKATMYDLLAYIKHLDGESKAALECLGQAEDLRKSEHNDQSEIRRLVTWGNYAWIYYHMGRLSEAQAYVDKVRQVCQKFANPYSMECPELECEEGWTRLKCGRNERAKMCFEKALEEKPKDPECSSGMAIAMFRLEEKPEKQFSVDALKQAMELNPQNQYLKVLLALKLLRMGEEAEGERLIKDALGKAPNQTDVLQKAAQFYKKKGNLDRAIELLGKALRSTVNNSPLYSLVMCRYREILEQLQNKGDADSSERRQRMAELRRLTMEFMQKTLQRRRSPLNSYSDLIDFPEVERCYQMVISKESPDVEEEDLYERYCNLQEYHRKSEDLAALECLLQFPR
Experiment: cryo-EM structure
Conditions: both partners purified

B1: mouse IFIT2 (M. musculus Ifit2, co-expressed with Ifit3 in E. coli) (natural protein, UniProt Q64112 1-472, looked up)
chain: MSTTSKESLVCNLRQLKCHFTWNLIAEDESLDEFEDRVFNKDEFQNSEFKATMCNILAYVKHCRGLNEAALQCLGEAEGFIQQQHPDQVEIRSLVTWGNYAWVYYHMGQFSKAQAYLDKVKQVCKKFSSPYRIENPALDCEEGWARLKCTKNQNERVKVCFQKALEKDPKNPEFTSGWAIAFYRLDDWPARNYCIDSLEQAIQLSPDNTYVKVLLALKLDAVHVHKNQAMALVEEALKKDPSAIDTLLRAARFYCKVYDTDRAIQLLRKALEKLPNNAYVHYYMGCCYRSKVHHMLNRREMVFSGDRKKLEELIQLAVNHLRKAEEIKEMLEYSCSFLADLYIIAKKYDEADYYFQKELSKDLPPGPKQLLHLRYGNFQFFQMKRQDKAIYHYMEGVKIKKKTIPQKKMREKLQRIALRRLHEDESDSEALHILAFLQENGGGQQADKDSERGVDSANQVPSASLDEDGAEY
notes: also called interferon-induced protein with tetratricopeptide repeats 2; source: E. coli Rosetta pLysS, co-expressed with Ifit3, purified (nickel column, TEV cleavage, Superdex 200 size exclusion)
- stoichiometry N: 1
